Starred links: 1 amine or outer side, 2 acyl side, 3 side chain; linkers in the order of their positions; H or OH if unused. Non-standard residues stand in square brackets, D forms with d. *: point of attachment. Trp(6-Me) = Cc1ccc2c(C[C@H](N)C(=O)O)c[nH]c2c1; Trp(7-F) = N[C@@H](Cc1c[nH]c2c(F)cccc12)C(=O)O; Trp(7-Me) = Cc1cccc2c(C[C@H](N)C(=O)O)c[nH]c12; d(γGlu) = O=C(O)[C@@H](CCC(=O)[*:2])N[*:1]; C18 diacid = O=C(O)CCCCCCCCCCCCCCCCC(=O)*; γGlu = O=C(O)[C@H](CCC(=O)[*:2])N[*:1]; 2Nal = N[C@@H](Cc1ccc2ccccc2c1)C(=O)O; Palmitoyl = CCCCCCCCCCCCCCCC(=O)*; 3Pal = N[C@@H](Cc1cccnc1)C(=O)O; 4Pal = N[C@@H](Cc1ccncc1)C(=O)O; Nle = CCCC[C@H](N)C(=O)O; AEEA = NCCOCCOCC(=O)O; Aib = CC(C)(N)C(=O)O; Sar = CNCC(=O)O
B1: Peptide 83 (peptide)
peptide: {C18 diacid}-[d(γGlu)][AEEA][AEEA][AEEA][AEEA]GN[3Pal]WAV[dA]HL[Nle]-NH2
SMILES: CCCC[C@H](NC(=O)[C@H](CC(C)C)NC(=O)[C@H](Cc1c[nH]cn1)NC(=O)[C@@H](C)NC(=O)[C@@H](NC(=O)[C@H](C)NC(=O)[C@H](Cc1c[nH]c2ccccc12)NC(=O)[C@H](Cc1cccnc1)NC(=O)[C@H](CC(N)=O)NC(=O)CNC(=O)COCCOCCNC(=O)COCCOCCNC(=O)COCCOCCNC(=O)COCCOCCNC(=O)CC[C@@H](NC(=O)CCCCCCCCCCCCCCCCC(=O)O)C(=O)O)C(C)C)C(N)=O
B2: Peptide 87 (peptide)
peptide: Palmitoyl-[γGlu][AEEA][AEEA]GNH[Trp(7-F)]AV[dA]HL[Nle]-NH2
SMILES: CCCCCCCCCCCCCCCC(=O)N[C@@H](CCC(=O)NCCOCCOCC(=O)NCCOCCOCC(=O)NCC(=O)N[C@@H](CC(N)=O)C(=O)N[C@@H](Cc1c[nH]cn1)C(=O)N[C@@H](Cc1c[nH]c2c(F)cccc12)C(=O)N[C@@H](C)C(=O)N[C@H](C(=O)N[C@H](C)C(=O)N[C@@H](Cc1c[nH]cn1)C(=O)N[C@@H](CC(C)C)C(=O)N[C@@H](CCCC)C(N)=O)C(C)C)C(=O)O
B3: Peptide 96 (peptide)
peptide: Palmitoyl-[γGlu][AEEA][AEEA]GNHWAV[dA]HL[Nle]-NH2
SMILES: CCCCCCCCCCCCCCCC(=O)N[C@@H](CCC(=O)NCCOCCOCC(=O)NCCOCCOCC(=O)NCC(=O)N[C@@H](CC(N)=O)C(=O)N[C@@H](Cc1c[nH]cn1)C(=O)N[C@@H](Cc1c[nH]c2ccccc12)C(=O)N[C@@H](C)C(=O)N[C@H](C(=O)N[C@H](C)C(=O)N[C@@H](Cc1c[nH]cn1)C(=O)N[C@@H](CC(C)C)C(=O)N[C@@H](CCCC)C(N)=O)C(C)C)C(=O)O
B4: Peptide 91 (peptide)
peptide: Palmitoyl-[γGlu][AEEA][AEEA][AEEA][AEEA]GN[3Pal][Trp(7-Me)]AV[dA]HL[Nle]-NH2
SMILES: CCCCCCCCCCCCCCCC(=O)N[C@@H](CCC(=O)NCCOCCOCC(=O)NCCOCCOCC(=O)NCCOCCOCC(=O)NCCOCCOCC(=O)NCC(=O)N[C@@H](CC(N)=O)C(=O)N[C@@H](Cc1cccnc1)C(=O)N[C@@H](Cc1c[nH]c2c(C)cccc12)C(=O)N[C@@H](C)C(=O)N[C@H](C(=O)N[C@H](C)C(=O)N[C@@H](Cc1c[nH]cn1)C(=O)N[C@@H](CC(C)C)C(=O)N[C@@H](CCCC)C(N)=O)C(C)C)C(=O)O
B5: Peptide 90 (peptide)
peptide: {C18 diacid}-[γGlu][AEEA][AEEA][AEEA][AEEA]GNH[Trp(7-Me)]AV[dA]HL[Nle]-NH2
SMILES: CCCC[C@H](NC(=O)[C@H](CC(C)C)NC(=O)[C@H](Cc1c[nH]cn1)NC(=O)[C@@H](C)NC(=O)[C@@H](NC(=O)[C@H](C)NC(=O)[C@H](Cc1c[nH]c2c(C)cccc12)NC(=O)[C@H](Cc1c[nH]cn1)NC(=O)[C@H](CC(N)=O)NC(=O)CNC(=O)COCCOCCNC(=O)COCCOCCNC(=O)COCCOCCNC(=O)COCCOCCNC(=O)CC[C@H](NC(=O)CCCCCCCCCCCCCCCCC(=O)O)C(=O)O)C(C)C)C(N)=O
B6: Peptide 97 (peptide)
peptide: {C18 diacid}-[γGlu][AEEA][AEEA]GNHWAV[dA]HL[Nle]-NH2
SMILES: CCCC[C@H](NC(=O)[C@H](CC(C)C)NC(=O)[C@H](Cc1c[nH]cn1)NC(=O)[C@@H](C)NC(=O)[C@@H](NC(=O)[C@H](C)NC(=O)[C@H](Cc1c[nH]c2ccccc12)NC(=O)[C@H](Cc1c[nH]cn1)NC(=O)[C@H](CC(N)=O)NC(=O)CNC(=O)COCCOCCNC(=O)COCCOCCNC(=O)CC[C@H](NC(=O)CCCCCCCCCCCCCCCCC(=O)O)C(=O)O)C(C)C)C(N)=O
B7: Peptide 89 (peptide)
peptide: Palmitoyl-[γGlu][AEEA][AEEA]GRHWAV[dA]HL[Nle]-NH2
SMILES: CCCCCCCCCCCCCCCC(=O)N[C@@H](CCC(=O)NCCOCCOCC(=O)NCCOCCOCC(=O)NCC(=O)N[C@@H](CCCNC(=N)N)C(=O)N[C@@H](Cc1c[nH]cn1)C(=O)N[C@@H](Cc1c[nH]c2ccccc12)C(=O)N[C@@H](C)C(=O)N[C@H](C(=O)N[C@H](C)C(=O)N[C@@H](Cc1c[nH]cn1)C(=O)N[C@@H](CC(C)C)C(=O)N[C@@H](CCCC)C(N)=O)C(C)C)C(=O)O
B8: Peptide 93 (peptide)
peptide: Palmitoyl-[γGlu][AEEA][AEEA]GNH[2Nal]AVAHL[Nle]-NH2
SMILES: CCCCCCCCCCCCCCCC(=O)N[C@@H](CCC(=O)NCCOCCOCC(=O)NCCOCCOCC(=O)NCC(=O)N[C@@H](CC(N)=O)C(=O)N[C@@H](Cc1c[nH]cn1)C(=O)N[C@@H](Cc1ccc2ccccc2c1)C(=O)N[C@@H](C)C(=O)N[C@H](C(=O)N[C@@H](C)C(=O)N[C@@H](Cc1c[nH]cn1)C(=O)N[C@@H](CC(C)C)C(=O)N[C@@H](CCCC)C(N)=O)C(C)C)C(=O)O
B9: Peptide 95 (peptide)
peptide: {C18 diacid}-[γGlu][AEEA][AEEA][AEEA][AEEA]GN[3Pal][Trp(7-Me)]AV[dA]HL[Nle]-NH2
SMILES: CCCC[C@H](NC(=O)[C@H](CC(C)C)NC(=O)[C@H](Cc1c[nH]cn1)NC(=O)[C@@H](C)NC(=O)[C@@H](NC(=O)[C@H](C)NC(=O)[C@H](Cc1c[nH]c2c(C)cccc12)NC(=O)[C@H](Cc1cccnc1)NC(=O)[C@H](CC(N)=O)NC(=O)CNC(=O)COCCOCCNC(=O)COCCOCCNC(=O)COCCOCCNC(=O)COCCOCCNC(=O)CC[C@H](NC(=O)CCCCCCCCCCCCCCCCC(=O)O)C(=O)O)C(C)C)C(N)=O
B10: Peptide 85 (peptide)
peptide: {C18 diacid}-[γGlu][AEEA][AEEA]GNH[Trp(7-Me)]AV[dA]HL[Nle]-NH2
SMILES: CCCC[C@H](NC(=O)[C@H](CC(C)C)NC(=O)[C@H](Cc1c[nH]cn1)NC(=O)[C@@H](C)NC(=O)[C@@H](NC(=O)[C@H](C)NC(=O)[C@H](Cc1c[nH]c2c(C)cccc12)NC(=O)[C@H](Cc1c[nH]cn1)NC(=O)[C@H](CC(N)=O)NC(=O)CNC(=O)COCCOCCNC(=O)COCCOCCNC(=O)CC[C@H](NC(=O)CCCCCCCCCCCCCCCCC(=O)O)C(=O)O)C(C)C)C(N)=O
B11: Peptide 86 (peptide)
peptide: {C18 diacid}-[γGlu][AEEA][AEEA]GNH[Trp(7-F)]AV[dA]HL[Nle]-NH2
SMILES: CCCC[C@H](NC(=O)[C@H](CC(C)C)NC(=O)[C@H](Cc1c[nH]cn1)NC(=O)[C@@H](C)NC(=O)[C@@H](NC(=O)[C@H](C)NC(=O)[C@H](Cc1c[nH]c2c(F)cccc12)NC(=O)[C@H](Cc1c[nH]cn1)NC(=O)[C@H](CC(N)=O)NC(=O)CNC(=O)COCCOCCNC(=O)COCCOCCNC(=O)CC[C@H](NC(=O)CCCCCCCCCCCCCCCCC(=O)O)C(=O)O)C(C)C)C(N)=O
B12: Peptide 82 (peptide)
peptide: {C18 diacid}-[d(γGlu)][AEEA][AEEA]GNHWAV[dA]HL[Nle][Aib]-NH2
SMILES: CCCC[C@H](NC(=O)[C@H](CC(C)C)NC(=O)[C@H](Cc1c[nH]cn1)NC(=O)[C@@H](C)NC(=O)[C@@H](NC(=O)[C@H](C)NC(=O)[C@H](Cc1c[nH]c2ccccc12)NC(=O)[C@H](Cc1c[nH]cn1)NC(=O)[C@H](CC(N)=O)NC(=O)CNC(=O)COCCOCCNC(=O)COCCOCCNC(=O)CC[C@@H](NC(=O)CCCCCCCCCCCCCCCCC(=O)O)C(=O)O)C(C)C)C(=O)NC(C)(C)C(N)=O
B13: Peptide 84 (peptide)
peptide: {C18 diacid}-[d(γGlu)][AEEA][AEEA]GNH[Trp(6-Me)]AV[dA]HL[Nle][Sar]-NH2
SMILES: CCCC[C@H](NC(=O)[C@H](CC(C)C)NC(=O)[C@H](Cc1c[nH]cn1)NC(=O)[C@@H](C)NC(=O)[C@@H](NC(=O)[C@H](C)NC(=O)[C@H](Cc1c[nH]c2cc(C)ccc12)NC(=O)[C@H](Cc1c[nH]cn1)NC(=O)[C@H](CC(N)=O)NC(=O)CNC(=O)COCCOCCNC(=O)COCCOCCNC(=O)CC[C@@H](NC(=O)CCCCCCCCCCCCCCCCC(=O)O)C(=O)O)C(C)C)C(=O)N(C)CC(N)=O
B14: Peptide 88 (peptide)
peptide: {C18 diacid}-[γGlu][AEEA][AEEA]GRHWAV[dA]HL[Nle]-NH2
SMILES: CCCC[C@H](NC(=O)[C@H](CC(C)C)NC(=O)[C@H](Cc1c[nH]cn1)NC(=O)[C@@H](C)NC(=O)[C@@H](NC(=O)[C@H](C)NC(=O)[C@H](Cc1c[nH]c2ccccc12)NC(=O)[C@H](Cc1c[nH]cn1)NC(=O)[C@H](CCCNC(=N)N)NC(=O)CNC(=O)COCCOCCNC(=O)COCCOCCNC(=O)CC[C@H](NC(=O)CCCCCCCCCCCCCCCCC(=O)O)C(=O)O)C(C)C)C(N)=O
B15: Peptide 94 (peptide)
peptide: Palmitoyl-[γGlu][AEEA][AEEA]GN[4Pal]WAV[dA]HL[Nle]-NH2
SMILES: CCCCCCCCCCCCCCCC(=O)N[C@@H](CCC(=O)NCCOCCOCC(=O)NCCOCCOCC(=O)NCC(=O)N[C@@H](CC(N)=O)C(=O)N[C@@H](Cc1ccncc1)C(=O)N[C@@H](Cc1c[nH]c2ccccc12)C(=O)N[C@@H](C)C(=O)N[C@H](C(=O)N[C@H](C)C(=O)N[C@@H](Cc1c[nH]cn1)C(=O)N[C@@H](CC(C)C)C(=O)N[C@@H](CCCC)C(N)=O)C(C)C)C(=O)O
B16: Peptide 81 (peptide)
peptide: {C18 diacid}-[d(γGlu)][AEEA][AEEA]GNH[Trp(7-Me)]AV[dA]HL[Nle][Sar]-NH2
SMILES: CCCC[C@H](NC(=O)[C@H](CC(C)C)NC(=O)[C@H](Cc1c[nH]cn1)NC(=O)[C@@H](C)NC(=O)[C@@H](NC(=O)[C@H](C)NC(=O)[C@H](Cc1c[nH]c2c(C)cccc12)NC(=O)[C@H](Cc1c[nH]cn1)NC(=O)[C@H](CC(N)=O)NC(=O)CNC(=O)COCCOCCNC(=O)COCCOCCNC(=O)CC[C@@H](NC(=O)CCCCCCCCCCCCCCCCC(=O)O)C(=O)O)C(C)C)C(=O)N(C)CC(N)=O

target: human GRP receptor (human, UniProt P30550 1-384); experiment: cell-based or functional assay
Sequence (P30550 whole entry): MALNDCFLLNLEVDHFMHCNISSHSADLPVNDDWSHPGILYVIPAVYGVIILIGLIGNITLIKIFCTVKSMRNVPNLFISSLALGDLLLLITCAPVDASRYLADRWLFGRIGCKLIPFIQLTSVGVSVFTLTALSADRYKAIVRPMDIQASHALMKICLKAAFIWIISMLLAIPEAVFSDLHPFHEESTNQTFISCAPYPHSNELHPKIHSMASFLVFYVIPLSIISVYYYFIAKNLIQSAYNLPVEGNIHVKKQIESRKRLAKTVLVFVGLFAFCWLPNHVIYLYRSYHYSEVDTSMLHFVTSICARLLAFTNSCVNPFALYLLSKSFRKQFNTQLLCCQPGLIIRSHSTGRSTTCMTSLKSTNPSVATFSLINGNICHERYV

Point of comparison: B6, “hIP1 GRPR EC50” value 8.91 nM. Against it:
- B1 — 12-fold higher, 109 nM
- GNHWAVXHLX (Gly-Asn-His-Trp-Ala-Val-D-Ala-His-Leu-Nle-NH2) [Peptide 6] — 3-fold higher, 26.8 nM
- B2 — 5.2-fold lower, 1.73 nM
- B3 — 5.6-fold lower, 1.58 nM
- B4 — 2.4-fold lower, 3.72 nM
- B5 — within 1.5-fold, 12.6 nM
- B7 — 5.7-fold lower, 1.57 nM
- B8 — within 1.5-fold, 6.95 nM
- B9 — 12-fold higher, 110 nM
- B10 — 1.6-fold higher, 14.7 nM
- B11 — 2-fold higher, 17.6 nM
- B12 — 140-fold higher, 1230 nM
- B13 — 290-fold higher, 2550 nM
- B14 — 1.6-fold lower, 5.51 nM
- B15 — 6.1-fold lower, 1.45 nM
- B16 — 57-fold higher, 505 nM

Reference: US20260176319A1 (KALLYOPE, published 2026)
